# Test results published in US20030100489.
# T1: p16
# T1 chain: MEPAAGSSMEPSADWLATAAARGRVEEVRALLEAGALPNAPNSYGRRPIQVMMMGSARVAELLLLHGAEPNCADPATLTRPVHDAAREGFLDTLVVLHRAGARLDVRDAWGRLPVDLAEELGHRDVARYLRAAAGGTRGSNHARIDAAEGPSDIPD
# T2: p15
# T2 chain: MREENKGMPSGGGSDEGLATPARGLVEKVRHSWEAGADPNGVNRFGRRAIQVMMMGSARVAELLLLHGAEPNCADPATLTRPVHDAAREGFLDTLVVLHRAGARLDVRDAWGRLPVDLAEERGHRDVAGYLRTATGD
# T3: GST-p15
# T3 chain: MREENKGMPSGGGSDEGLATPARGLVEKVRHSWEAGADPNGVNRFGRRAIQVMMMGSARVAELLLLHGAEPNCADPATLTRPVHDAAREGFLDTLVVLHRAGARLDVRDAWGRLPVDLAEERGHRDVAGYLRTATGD
# T4: GST-p16 fusion protein
# T4 chain: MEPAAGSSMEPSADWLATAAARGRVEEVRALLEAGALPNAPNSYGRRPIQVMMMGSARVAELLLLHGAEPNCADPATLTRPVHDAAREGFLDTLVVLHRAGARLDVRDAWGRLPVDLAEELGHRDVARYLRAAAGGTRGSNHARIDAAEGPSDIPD
# Assays:
# p16 = molecular target: T1, p16
# p15 = molecular target: T2, p15
# GST-p15 = molecular target: T3, GST-p15
# GST-p16 fusion protein = molecular target: T4, GST-p16 fusion protein
# Chain of p21, P38936 (P38936 whole entry, the tested form may be a part): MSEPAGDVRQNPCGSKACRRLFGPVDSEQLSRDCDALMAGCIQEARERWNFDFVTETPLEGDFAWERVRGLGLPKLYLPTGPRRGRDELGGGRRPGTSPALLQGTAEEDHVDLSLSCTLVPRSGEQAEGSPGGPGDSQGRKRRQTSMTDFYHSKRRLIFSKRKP
Protein,"RB phosphorylation by cyclin D/CDK4 (GST-RB substrate) (p21, P38936)",CDK4 kinase activity (GST-RB phosphorylation) (p16),ability of CDK4 to phosphorylate RB (p16),CDK4 kinase activity (GST-RB phosphorylation) (p15),kinase activity of CDK4 (GST-RB phosphorylation) (GST-p15),kinase activity of CDK4 (GST-RB phosphorylation) (GST-p16 fusion protein),"CDK4 kinase activity (GST-RB phosphorylation) (p21, P38936)",CDK4 kinase activity (GST-RB phosphorylation) (p27)
CDK4 (wild-type) (protein) MATSRYEPVAEIGVGAYGTVYKARDPHSGHFVALKSVRVPNGGGGGGGLPISTVREVALLRRLEAFEHPNVVRLMDVCATSRTDREIKVTLVFEHVDQDLRTYLDKAPPPGLPAETIKDLMRQFLRGLDFLHANCIVHRDLKPENILVTSGGTVKLADFGLARIYSYQMALTPVVVTLWYRAPEVLLQSTYATPVDMWSVGCIFAEMFRRKPLFCGNSEADQLGKIFDLIGLPPEDDWPRDVSLPRGAFPPRGPRPVQSVVPEMEESGAQLLLEMLTFNPHKRISAFRALQHSYLHKDEGNPE,Addition of increasing amounts of p21 resulted in the accumulation of cyclin D/CDK4/p21 ternary complexes with a corresponding inhibition of RB phosphorylation,"upon addition of increasing amounts of either p16- or p15containing lysate to the CDK4/cyclin D mixture, the wild-type CDK4 was inhibited","In response to increasing amounts of p16, corresponding decreases in the ability of CDK4 to phosphorylate RB was observed","upon addition of increasing amounts of either p16- or p15containing lysate to the CDK4/cyclin D mixture, the wild-type CDK4 was inhibited","Like p16, the p15-GST fusion protein was able to inhibit the kinase activity of CDK4","Like p16, the p15-GST fusion protein was able to inhibit the kinase activity of CDK4",–,–
CDK4 Arg24-Cys mutant (protein) MATSRYEPVAEIGVGAYGTVYKACDPHSGHFVALKSVRVPNGGGGGGGLPISTVREVALLRRLEAFEHPNVVRLMDVCATSRTDREIKVTLVFEHVDQDLRTYLDKAPPPGLPAETIKDLMRQFLRGLDFLHANCIVHRDLKPENILVTSGGTVKLADFGLARIYSYQMALTPVVVTLWYRAPEVLLQSTYATPVDMWSVGCIFAEMFRRKPLFCGNSEADQLGKIFDLIGLPPEDDWPRDVSLPRGAFPPRGPRPVQSVVPEMEESGAQLLLEMLTFNPHKRISAFRALQHSYLHKDEGNPE,–,the mutant CDK4 was relatively unaffected,–,the mutant CDK4 was relatively unaffected,–,–,"the particular mutation, Arg24-Cys, did not effect the binding or inhibitory ability of either of those proteins","the particular mutation, Arg24-Cys, did not effect the binding or inhibitory ability of either of those proteins"
